Measurements: the nanobody polyreactivity screen of Harvey et al. (2022)

Assay: yeast display, Sf9 membrane polyspecificity reagent, FACS + sequencing; frameworks hold sequencing errors
Outline: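 Galactose-induced (36–48 hours) yeast carrying a synthetic nanobody display library were exposed to 10% biotinylated, detergent-solubilized Sf9 membrane reagent at 4 °C for 1 hour. FACS followed streptavidin microbead enrichment, using low and high (top ~1%) gates for expression (anti-HA) and reagent binding (streptavidin). Colony PCR, MiSeq 2 × 250 sequencing and CDR-length filtering followed. Labels for polyreactivity reflect the gate of origin.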

Sequence | polyreactivity (PSR sort gate)
QVQLVESGGCLVQAGGSLRLSCASSGFTFDIYAMGWYRQAPGKERELVATISFTGDTTSYADSGKGRFTISRDNAKNTVYLQMNSLKPEDTAVYYCAADGSYPLSVGRENLHYAEFDYWGKGTQVTVSS | low polyreactivity
QVQLVESGGCLVQAGGSLRLSCASSGSTFTHYAMGWYIQSPGKERELVAAISSGGSTYYADSVKGRFTISRDNAKNTVYLQMNSLKPEDTAVYYCAADYYLHDWWYPHDYWGQGTQVTVSS | low polyreactivity
QVQLVESGGCLVQAGGSLRLSCDASGIIFRGNAMGWYRHAPGTERELVAAISSAGSTNYSDSVKGRFTISRDNAKNTVYLQMNSLKPEDTAVYYCAKGSIKYHVTLRGRGYYWGQGTQVTVSS | low polyreactivity
QVQLVESGGCLVQAGGSLRLSCDASGSTFPYYAMGWYRQAPGKERELVAAITLSGSSTYYTDSVKGRFTISRDNAKNTVYLQMNSLKPEDTAVYYCATRRVQWGYRYSYWRQGTQVTVSS | high polyreactivity
QVQLVESGGCLVQAGGSLRLSCSASGLTFRYYAMGWYRQAPGKESELVAAITRRGSTYYADSVKGRFTISRDIAKNTVYLQMNSLKPEDSAVYYCATVTGFHSSPLRDLDYWGQGTLVTVSS | high polyreactivity
QVQLVESGGCLVQAGGSLRLSSAASGFTFRRYTMGWYRQAPGKVRELVAAISRSGGSTFYADSVKGRFTISRDNAKNTVYLQLNSLKPEDSAVYYCNAGRTYTALNGDYWGHGTQVTVSS | high polyreactivity
QVQLVESGGCLVQAGGSLRLSSAASGRTFDHYAMGWYRQAPGKERELDAAITSGGSTYYADSVKGRFTISRDNAKNTVYLQMNSLKPEDTAVYYCNKDSSFWGSYIAQVNERDYWGQGTQVTVSS | low polyreactivity
QVQLVESGGCLVQAGGSLRLTCAASGFTFVYNAMGWYRQDPGKERELVARISVSGGSTYYADSVKGRFTISRDNAKNTVYLQMNSLKPEDTSVYYCAAELSAPQPDYQLKVDYYYWGQGTQVTVSS | low polyreactivity
QVQLVESGGCLVQAGGSLSLSCAASGFIFDHNAMGWYRQAPGKERELVAAITWRGDSTYYADSVKGRFTISRDTAKNSVYVQMNSLKPEDTAVYYCNADAILVYYGKLDYWGQGTQVTVSS | low polyreactivity
QVQLVESGGCLVQAGGSRRLSWAASGRIFDTYTMGWYRQAPGKERELVAAITSGGSTYYADSVKGRFTISRDNAMNTVYLQMNSLKPEDTAVYYCAARYRSIIRYYYWGQGTQVTVSS | high polyreactivity
QVQLVESGGCLVQARGSLRLSCASSGFIFQAYAIGWYRHRPGKERELVASISYSGSRTYYADSVKGRFTISRDNAKNTVYLQMNSLKPADTAVYYCAAGPRYWYPWFGRDYEYWGQGTQVTVSS | high polyreactivity
QVQLVESGGCLVQSGGSLRLSCAASGSTFRGYAMGWYRQAPGKEREFVAAISKGGASTYYADSVKGRFTISRDNAMNTVYLQMNSLKPEDTAVYYCAKGAYRRAYGTYYYWGQGTQVTVSS | high polyreactivity
QVQLVESGGDLVQAGGSLRLSCAASGRSYKYNDMGWYRQAPRKERELVADISSGVSTYYADSVKGRFTISRDNAKNTVYLQMNSLKPEDTAVYYFNAYSDGDEDYWGQGTQVTVSS | low polyreactivity
QVQLVESGGFLVQAAGSLRLSCDASGFTFSSYSMGWYRQAPGKERELVAAISTRGGSTYYADSVKGRFTISLDNAMNSVYLLLNSLKPEDTADYYCATGGRGGRRYDYWGQGTQVTVSS | low polyreactivity
QVQLVESGGGFVHAGGSLRLSCAASGITSRFYAIGWYRQAPAKERELVAAITSGGGSTRYSDSVKGRFTISRDNAKNTVYLQMNSLKPEDTAVYYCNARVLYYVNGYGGCKRYGYWGQGTQVNVSS | high polyreactivity
QVQLVESGGGFVKAGGSLRLSCASSGSIFYSYAMGWYRQAPGKEREFVAAISWSASRTYYADSVKGRFTISRDNAKNTVYLQMNSLKPEDTAVYDCAARTYYNSGYYYWGQGTQVTVSS | high polyreactivity
QVQLVESGGGFVQAGCSLRLSCDASGSIFAPNVMGCYRQAPGKERELDAAINFIGGRTYYADSVKGRFTISRDNAKNTVYLQMNSLKTEDTSVYYCNVGSYYRSYSGDFEYWGQGTQVTVSS | high polyreactivity
QVQLVESGGGFVQAGGRLRLSCAASGRTFKYYAMGWYRPAPGKDRELVAAISRGGSTNYADSVKGRFTISRDNAKNTVYLQLTSLNPEDTAVYYCAADQVTDYWWRGYEYWGQGTQVTVSS | low polyreactivity
QVQLVESGGGFVQAGGSLRLSCAASGCTFIKYAMGWYTQAPGKEREFVAAITRSGTSTYYADSVKGRFTISRDNAKNTVYLQMNRLKPEDTAVYFCSARYVYNSDRVSERDYWGQGTQVTVSS | high polyreactivity
QVQLVESGGGFVQAGGSLRLSCAASGCTVRWNAKGWYRQATGKDRELVAAITYSGGSTYYADSVKGRLTISRDIANNTVYLQMNSLNPEDTAVYYCATEGRGYFCYYTDDYWGQGTQVTVSS | high polyreactivity
QVQLVESGGGFVQAGGSLRLSCAASGFIFGYYAMGWYRQAPGKERELVAAITRSGSRTYYADSVKGRFTISRDNAKNTVYLQMNSLKPEDTAVYYFAKRRYWYYRSRDWFVSGVYWGQGTQVTVSS | low polyreactivity
QVQLVESGGGFVQAGGSLRLSCAASGFSFGYSAMGWYRQAPGKERELVAAINNADSTYYADSVKGRFPISRDNAKNTVYLQMNSLKPEDTAVYYCAAVVDYGWWLAYDYWGQGTQVTVSS | high polyreactivity

Sequence | polyreactivity (PSR sort gate)
QVQLVESGGGFVQAGGSLRLSCAASGINVSHYTMGWYRQAPGKERELVAGISRSGGSTYYADSVKGRFTISRDNAKNTVYLQMNSLKPDDTAVYYCAADGYGFVSPRGYNYWGQGTQVTVSS | high polyreactivity
QVQLVESGGGFVQAGGSLRLSCAASGRIFGQYAMGWYRQAPGKERELVAAISQRGGSTYYADSVKGRFTISRDNAKNTVYLQMNSLKPEDTAVYYCAAPPRLIKSYGYNYWGQGTQVTVSS | high polyreactivity
QVQLVESGGGFVQAGGSLRLSCAASGRIFGVYALGWYRPAPGKERELVAAISYSGGSTYYADSVKGRFTISRVNAKNTVYLQMNSLKPEDTAVYYCAAKIFPKGDYWGQGTQVTVSS | high polyreactivity
QVQLVESGGGFVQAGGSLRLSCAASGRTFNGYAMGWYTQAPGKERELVAGISWRGTSTYYSDSVKGRFTISRDNAKNTVYLQLNSLKPEDTAVYYCAASRYLLYDYWGQGTQVTVSS | high polyreactivity
QVQLVESGGGFVQAGGSLRLSCAASGSIFRGYAMGWYRQAPGKERELVAAIRYSGARTYYADSVKGRFTISRDNAKNTVYLQMNSLKPEDTAVYYCNARYIRSYDYWGQGTQVTVSS | high polyreactivity
QVQLVESGGGFVQAGGSLRLSCAASGSTFFTNAKGWYRQAPGKERELVAASRWRGGTYYADSVKGRFTISRDNAKKTVYLQMNSLKPEDTPVYDCATSVKTSFDYWRQGTQVTVSS | low polyreactivity
QVQLVESGGGFVQAGGSLSLSCAASGRIFGINAMLWYRQAPGKVRELVAAISSSGANTYYADSVKGRFTISRDNAKNTVYLQMNRLKPEDTAVYYCATKASSYQSPYYYWGQGTQVTVSS | high polyreactivity
QVQLVESGGGFVQAGVSLRLSCAASGSIYYNAMGWYIQAPGKERELVAGITSSGGSTYYADSVKGRFTISRDNAKNTVYLQMISLKPEDTAVYFCAADFVYLCTLFGAYDYCGQGTQVTVSS | low polyreactivity
QVQLVESGGGIDQAGGSLRLICAASGRTFTQYAMRWSRQAHGKERELVAAITRSGGSTYYADSVKGRFTISRDNAKNTVYVLMNILKPEDTAVYYCAKRPAYRSTQTFDFWGQGTQVTVSS | high polyreactivity
QVQLVESGGGIFHAGGSLRLRCAASGSIYRGYAMVWYRQAPGKERELVASIRWRGGRTNYADSVKGRFTISRDNAKNTVYLQMNSLKPEDTAVYYCNADQQTIRSGKNDYWGQGTQVTVSS | low polyreactivity
QVQLVESGGGIFQAGGSLRLSCDASGFTIGAYAMGWYRQAPGKERELVAAITLRTGGSTYYADSLKGRFTISRDNAKNTVYLQMNSLKPEDTAVYYCATYGSYWRKSRAPGYYYGGQGTQVTVSS | high polyreactivity
QVQLVESGGGIVHAGCSLRLSSTASRFIFWWYAMAGYRQAHGKERELVATITASVGSTNYADSVKGRFTISRDNAKNTVYLQMNSLNPEDTAVYYCATDIIGAIRDWDHTRMDYWGQGTQVTVSS | low polyreactivity
QVQLVESGGGIVHAGGSLRLSCAASGFIFDTNAMGWYRQAPGKEREMVAAITNDDSTNYADSVKGRFTISRDNAKTTVYLQMNSLKPEDTSVYYCAAYYIAQVVWPTTFHQQEYDYWGQGSQVTVSS | low polyreactivity
QVQLVESGGGIVKAAGSLRLSCAASGSTFKKYAMGWDRQAPRKERELVASISSGGGTYYADSVKGRFTISRDNAKNTVYVQMNSLKPEDTAVYYCAARYHYAKSPYRYYYWGQGTQVTVSS | high polyreactivity
QVQLVESGGGIVKAGGSLGISCAASGRIFDYYDMLWYRQAPGKERELVAAITQSGGSTNYADSVKGRFTISRDNAKNTVYLQMNSLKPEDTAVYYCAGVGYYTKRRFGYWGQGTQVTVSS | high polyreactivity
QVQLVESGGGIVQAAGSLRLSCAASGFTIYYYAMVWYRQAPGKERELVASITSGGSTYYADSVKGRFTISRDNAKNTVYLQMNSLKPEDTAVYYCAITRFHSKEGVYWGQGTQVTVSS | low polyreactivity
QVQLVESGGGIVQAGGRLRISCAASGFSFRKYAMGWSRQAPGKEREFVASISSTGARTYYADSVKGRFTISRDNAKNTVYLQMTSLKPEDTAVYYCAAAYGRYYYTYDYWGLGTQVTVSS | high polyreactivity
QVQLVESGGGIVQAGGRLRLRCAASGSNFYYNAMGWYRQAPGKERELVAAITWSGGRTYYADSVKGRFTISRDNAKNTVYLQMNSLKPEDTAVYYCNARYRASRYNYWGQGTQVTVSS | high polyreactivity
QVQLVESGGGIVQAGGRLRLSCAASGSILAGYALGWYRQSPGKERELVAAISESGGNTYYADSVKGRFTISRDNAKNTVYLQMNSLKPEDTAVYYCAADLGYGPLRELEYWGQGTQVTVSS | low polyreactivity
QVQLVESGGGIVQAGGRLRLSCAASGSTFFKYARGWYRQAPGKERELVATMSGTGGRTYYADSVKGRFTISRDNAKNTVYLQMNSLKPEDTAVYYCAAGIYRPFFYTLDYWGQGTQVTVSS | low polyreactivity
QVQLVESGGGIVQAGGSFRLSCAASGSIFVVYAMGWYRQAPGKERELVAAITSGGSTYYADSVKGRFTISRDNAKNTVYLQMNSLKPEDTAVYYCATTYRDGVYELTTFDYWGQGTQVTVSS | low polyreactivity
